# Starred links: 1 amine or outer side, 2 acyl side, 3 side chain; linkers in the order of their positions; H or OH if unused. Non-standard residues stand in square brackets, D forms with d. Primed or numbered codes have the meaning given here. *: point of attachment. AC4Abu = α-carboxy-4-aminobutyric acid, O=C(C(CCN[*:1])C(=O)[*:3])[*:2]; Oic = O=C(O)[C@@H]1C[C@@H]2CCCC[C@@H]2N1; γGlu = O=C(O)[C@H](CCC(=O)[*:2])N[*:1]; d(β3hF) = N[C@@H](CC(=O)O)Cc1ccccc1; NMeR = CN[C@@H](CCCNC(=N)N)C(=O)O; Palmitoyl = CCCCCCCCCCCCCCCC(=O)*; Tic = O=C(O)[C@@H]1Cc2ccccc2CN1; dTic = O=C(O)[C@H]1Cc2ccccc2CN1; β3hF = N[C@H](CC(=O)O)Cc1ccccc1; Cha = N[C@@H](CC1CCCCC1)C(=O)O; Aic = NC1(C(=O)O)Cc2ccccc2C1; β3hP = O=C(O)C[C@@H]1CCCN1; Pip = O=C(O)[C@@H]1CCCCN1; Nle = CCCC[C@H](N)C(=O)O; Orn = NCCC[C@H](N)C(=O)O; Pip′ = not defined here; AEEA = NCCOCCOCC(=O)O
# T1: human APJ receptor (human, UniProt P35414 1-380)
# T1 sequence (looked up): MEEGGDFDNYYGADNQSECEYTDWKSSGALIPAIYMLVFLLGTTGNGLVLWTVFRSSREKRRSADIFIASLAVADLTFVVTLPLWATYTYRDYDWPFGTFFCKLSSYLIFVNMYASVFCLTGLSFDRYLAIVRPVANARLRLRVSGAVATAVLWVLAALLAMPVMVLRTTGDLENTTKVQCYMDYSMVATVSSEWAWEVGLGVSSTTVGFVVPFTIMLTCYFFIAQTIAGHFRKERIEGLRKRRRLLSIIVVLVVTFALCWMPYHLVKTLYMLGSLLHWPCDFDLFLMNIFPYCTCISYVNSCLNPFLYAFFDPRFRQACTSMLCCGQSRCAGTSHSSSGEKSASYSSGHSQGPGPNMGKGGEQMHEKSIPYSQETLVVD
# T2: rat APJ receptor (rat, UniProt Q9JHG3 1-377)
# T2 sequence (looked up): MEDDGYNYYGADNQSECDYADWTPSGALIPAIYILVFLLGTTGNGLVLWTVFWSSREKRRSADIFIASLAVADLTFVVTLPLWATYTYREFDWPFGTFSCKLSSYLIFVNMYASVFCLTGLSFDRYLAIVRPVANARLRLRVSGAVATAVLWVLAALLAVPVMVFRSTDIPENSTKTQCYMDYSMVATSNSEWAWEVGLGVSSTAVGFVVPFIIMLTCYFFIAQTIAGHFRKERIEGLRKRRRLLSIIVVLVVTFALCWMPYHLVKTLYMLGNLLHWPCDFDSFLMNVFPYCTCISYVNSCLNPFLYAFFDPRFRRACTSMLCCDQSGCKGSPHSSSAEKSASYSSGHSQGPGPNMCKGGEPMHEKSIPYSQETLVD
# What was measured:
# human APJ receptor = biological target: T1, human APJ receptor; experiment: cell-based or functional assay
# rat APJ receptor = biological target: T2, rat APJ receptor; experiment: cell-based or functional assay
Binder,EC50 Human APJ Receptor (human APJ receptor) [nM],EC50 Rat APJ Receptor (rat APJ receptor) [nM]
Palmitoyl-[AC4Abu][AEEA][AEEA][dQ]RP[NMeR][Cha]SHKG[Pip][Nle]P[Tic]-OH (SMILES CCCCCCCCCCCCCCCC(=O)NCCC(C(=O)O)C(=O)NCCOCCOCC(=O)NCCOCCOCC(=O)N[C@H](CCC(N)=O)C(=O)N[C@@H](CCCNC(=N)N)C(=O)N1CCC[C@H]1C(=O)N(C)[C@@H](CCCNC(=N)N)C(=O)N[C@@H](CC1CCCCC1)C(=O)N[C@@H](CO)C(=O)N[C@@H](Cc1c[nH]cn1)C(=O)N[C@@H](CCCCN)C(=O)NCC(=O)N1CCCC[C@H]1C(=O)N[C@@H](CCCC)C(=O)N1CCC[C@H]1C(=O)N1Cc2ccccc2C[C@H]1C(=O)O) [SEQ ID NO: 598],0.463,2.84
Palmitoyl-[AC4Abu][AEEA][AEEA][dQ]RP[NMeR][Cha]SHKG[Pip][Nle]P[Aic]-OH (SMILES CCCCCCCCCCCCCCCC(=O)NCCC(C(=O)O)C(=O)NCCOCCOCC(=O)NCCOCCOCC(=O)N[C@H](CCC(N)=O)C(=O)N[C@@H](CCCNC(=N)N)C(=O)N1CCC[C@H]1C(=O)N(C)[C@@H](CCCNC(=N)N)C(=O)N[C@@H](CC1CCCCC1)C(=O)N[C@@H](CO)C(=O)N[C@@H](Cc1c[nH]cn1)C(=O)N[C@@H](CCCCN)C(=O)NCC(=O)N1CCCC[C@H]1C(=O)N[C@@H](CCCC)C(=O)N1CCC[C@H]1C(=O)NC1(C(=O)O)Cc2ccccc2C1) [SEQ ID NO: 590],0.816,6.2
Palmitoyl-[AC4Abu][AEEA][AEEA][dQ]RP[NMeR][Cha]SHKG[Pip][Nle][Aic]-OH (SMILES CCCCCCCCCCCCCCCC(=O)NCCC(C(=O)O)C(=O)NCCOCCOCC(=O)NCCOCCOCC(=O)N[C@H](CCC(N)=O)C(=O)N[C@@H](CCCNC(=N)N)C(=O)N1CCC[C@H]1C(=O)N(C)[C@@H](CCCNC(=N)N)C(=O)N[C@@H](CC1CCCCC1)C(=O)N[C@@H](CO)C(=O)N[C@@H](Cc1c[nH]cn1)C(=O)N[C@@H](CCCCN)C(=O)NCC(=O)N1CCCC[C@H]1C(=O)N[C@@H](CCCC)C(=O)NC1(C(=O)O)Cc2ccccc2C1) [SEQ ID NO: 597],0.885,3.37
Palmitoyl-[AC4Abu][AEEA][AEEA][dQ]RP[NMeR][Cha]SHKG[Pip][Nle]P[dTic]-OH (SMILES CCCCCCCCCCCCCCCC(=O)NCCC(C(=O)O)C(=O)NCCOCCOCC(=O)NCCOCCOCC(=O)N[C@H](CCC(N)=O)C(=O)N[C@@H](CCCNC(=N)N)C(=O)N1CCC[C@H]1C(=O)N(C)[C@@H](CCCNC(=N)N)C(=O)N[C@@H](CC1CCCCC1)C(=O)N[C@@H](CO)C(=O)N[C@@H](Cc1c[nH]cn1)C(=O)N[C@@H](CCCCN)C(=O)NCC(=O)N1CCCC[C@H]1C(=O)N[C@@H](CCCC)C(=O)N1CCC[C@H]1C(=O)N1Cc2ccccc2C[C@@H]1C(=O)O) [SEQ ID NO: 599],0.44,1.01

# Continued, values first:
EC50 Human APJ Receptor (human APJ receptor) [nM],EC50 Rat APJ Receptor (rat APJ receptor) [nM],Binder
2.47,11.1,Palmitoyl-[γGlu][AEEA][AEEA][dQ]RP[NMeR][Cha]SH[Orn]G[Oic][Nle][β3hP][d(β3hF)]-OH (SMILES CCCCCCCCCCCCCCCC(=O)N[C@@H](CCC(=O)NCCOCCOCC(=O)NCCOCCOCC(=O)N[C@H](CCC(N)=O)C(=O)N[C@@H](CCCNC(=N)N)C(=O)N1CCC[C@H]1C(=O)N(C)[C@@H](CCCNC(=N)N)C(=O)N[C@@H](CC1CCCCC1)C(=O)N[C@@H](CO)C(=O)N[C@@H](Cc1c[nH]cn1)C(=O)N[C@@H](CCCN)C(=O)NCC(=O)N1[C@H](C(=O)N[C@@H](CCCC)C(=O)N2CCC[C@H]2CC(=O)N[C@@H](CC(=O)O)Cc2ccccc2)C[C@@H]2CCCC[C@@H]21)C(=O)O) [SEQ ID NO: 618]
1.58,5.83,Palmitoyl-[AC4Abu][AEEA][AEEA][dQ]RP[NMeR][Cha]SHKG[Pip′][Nle]P[β3hF]-OH [SEQ ID NO: 647]

# — US10941182 (Amgen, dated 2021)
